Publication PMC6600415

Target: low-density lipoprotein receptor-related protein 6 (LRP6), O75581

TOPflash luciferase reporter activity in HEK 293T cells, percent inhibition, two concentrations up to 500 ng/mL (4.2 nM) [%]	TOPflash luciferase reporter activity in HEK 293T cells, percent inhibition; TEV-cleaved LysRS-DKK2-Fc (2): mixed with TEV protease and immediately added to cells [%]	Binder
47		LysRS-DKK2-Fc fusion protein, Q9UBU2 34-259 (Fc fusion) KLNSIKSSLGGETPGQAANRSAGMYQGLAFGGSKKGKNLGQAYPCSSDKECEVGRYCHSPHQGSSACMVCRRKKKRCHRDGMCCPSTRCNNGICIPVTESILTPHIPALDGTRHRDRNHGHYSNHDLGWQNLGRPHTKMSHIKGHEGDPCLRSSDCIEGFCCARHFWTKICKPVLHQGEVCTKQRKKGSHGLEIFQRCDCAKGLSCKVWKDATYSSKARLHVCQKI
	18	TEV-cleaved LysRS-DKK2-Fc (DKK2-Fc released by TEV protease), Q9UBU2 34-259 (Fc fusion) KLNSIKSSLGGETPGQAANRSAGMYQGLAFGGSKKGKNLGQAYPCSSDKECEVGRYCHSPHQGSSACMVCRRKKKRCHRDGMCCPSTRCNNGICIPVTESILTPHIPALDGTRHRDRNHGHYSNHDLGWQNLGRPHTKMSHIKGHEGDPCLRSSDCIEGFCCARHFWTKICKPVLHQGEVCTKQRKKGSHGLEIFQRCDCAKGLSCKVWKDATYSSKARLHVCQKI
